For one assay, the target named is other ESCRT-III proteins. Briefly: fluorescence polarisation; data not shown; other ESCRT-III proteins.
Assay [1] deals with T1, ULK3 fused to the VP16 activation domain, Q6PHR2.
T1 chain: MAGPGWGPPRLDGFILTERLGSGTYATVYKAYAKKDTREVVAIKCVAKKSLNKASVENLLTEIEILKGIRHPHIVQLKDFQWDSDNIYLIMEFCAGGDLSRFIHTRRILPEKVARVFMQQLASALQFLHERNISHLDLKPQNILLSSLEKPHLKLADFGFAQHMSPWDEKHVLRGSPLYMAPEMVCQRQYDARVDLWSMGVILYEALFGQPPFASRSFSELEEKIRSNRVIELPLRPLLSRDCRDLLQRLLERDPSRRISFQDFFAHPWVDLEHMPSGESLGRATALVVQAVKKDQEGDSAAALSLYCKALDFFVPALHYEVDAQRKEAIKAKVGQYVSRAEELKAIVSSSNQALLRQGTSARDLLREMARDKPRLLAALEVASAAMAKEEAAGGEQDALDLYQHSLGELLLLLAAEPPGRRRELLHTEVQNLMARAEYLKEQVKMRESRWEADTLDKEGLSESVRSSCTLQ
Briefly: yeast two-hybrid (β-galactosidase activity). Conditions: chain shown with the change;; parent: est. 0.66; read off a plot.

B1: ULK3(MIT)2 (residues 277–449) (domain or fragment)
chain: GPHMSGESLGRATALVVQAVKKDQEGDSAAALSLYCKALDFFVPALHYEVDAQRKEAIKAKVGQYVSRAEELKAIVSSSNQALLRQGTSARDLLREMARDKPRLLAALEVASAAMAKEEAAGGEQDALDLYQHSLGELLLLLAAEPPGRRRELLHTEVQNLMARAEYLKEQVKMRES
For the molecule B1, the equilibrium dissociation constant (Kd) with other ESCRT-III proteins was 100 µM.

B2: CHMP1B WT fused to the Gal4 DNA-binding domain, Q7LBR1 T178R; A181R; E184R (protein)
chain: MSNMEKHLFNLKFAAKELSRSAKKCDKEEKAEKAKIKKAIQKGNMEVARIHAENAIRQKNQAVNFLRMSARVDAVAARVQTAVTMGKVTKSMAGVVKSMDATLKTMNLEKISALMDKFEHQFETLDVQTQQMEDTMSSTTTLTTPQNQVDMLLQEMADEAGLDLNMELPQGQTGSVGRSVRSARQDELSQRLARLRDQV
For B2, in assay [1], the response came out at 0.5.

The values are drawn from paper PMC4475061.
